Target: T1, T4 DNA ligase (T4DL) (UniProt P00970 1-487)
T1 sequence: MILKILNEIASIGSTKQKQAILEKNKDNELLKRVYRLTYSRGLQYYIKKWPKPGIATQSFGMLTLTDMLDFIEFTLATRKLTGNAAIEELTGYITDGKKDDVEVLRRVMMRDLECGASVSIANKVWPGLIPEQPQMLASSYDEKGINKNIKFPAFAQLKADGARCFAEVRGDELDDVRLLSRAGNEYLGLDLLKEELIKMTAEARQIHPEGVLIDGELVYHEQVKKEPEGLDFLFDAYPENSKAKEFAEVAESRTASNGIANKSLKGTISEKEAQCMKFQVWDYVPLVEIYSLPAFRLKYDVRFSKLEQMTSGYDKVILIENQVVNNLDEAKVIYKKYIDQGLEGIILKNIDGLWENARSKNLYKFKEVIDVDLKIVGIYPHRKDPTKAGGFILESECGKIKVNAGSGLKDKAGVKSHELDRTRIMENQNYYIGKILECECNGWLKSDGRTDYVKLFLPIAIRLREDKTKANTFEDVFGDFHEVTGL
Assay: fluorescence anisotropy

B1: DAS1M (structured_DNA)
DNA: ATCTCGACTAGTCAGTCTCCCCAGCTAAAAAAAAAAAAAGTTGGGGAAAAAAAAAATCCGAATGTCTCGGAT
modifications: 5' phosphate
Work on B1 yielded a Kd of 1270 ± 300 nM.
